Series [1] addresses T1, Cathepsin B enzyme (Homo sapiens, UniProt P07858).
T1 construct: purchased Sino Biological 10483-H08H
Description: In vitro enzymatic release of free toxin molecules by Cathepsin B. The series is classed as biochemical. How it is done:
Preparation of activated buffer solution (10 mM L-cysteine (ACRO, cat #: 173600250), 15 mM EDTA, 0.1M His HCl, pH 5.5): […] of solid cysteine was weighed, adding 3 mL of 0.1M His HCl (pH 5.5) solution for dissolution, and then adding 90 μL of 0.5M EDTA solution to mix well.
[…] At each detection time point, 50 μL of enzyme digestion solution was taken, adding 2.5 μL of 10% TFA solution to terminate the reaction for enzyme digestion kinetics detection.
Negative control preparation: 30 μL of activated buffer was taken to stay in 37° C. water bath for 15 minutes, then adding 300 μL of 0.1M His HCl (pH 5.5) solution and 36 μL of 9D1-LD-38 (375 μg) to stay in 37° C. water bath overnight.

A short description of series [2]: Hydrophobic interaction chromatography (HIC) analysis of the antibody-drug conjugates. To be noted: main peak of the antibody-drug conjugate, Butyl-NPR column. The series is classed as physicochemical. How it is done:
Size exclusion chromatography (SEC) analysis column is Tskgel G3000SWXL (TOSOH, 0008541); mobile phase is 0.1 M PB, pH7.0, 0.1M NaCl; isocratic elution, flow rate: 1 mL/min; column temperature: 25° C. Detection wavelength is 280 nm and 366 nm, respectively. Hydrophobic interaction chromatography (HIC) analysis column is Butyl-NPR 4.6×100 mm (TOSOH, 0042168); mobile phase A is 50 mM PB, pH7.0, 1.5 M (NH4)2SO4; mobile phase B is 50 mM PB, pH7.0, 20% acetonitrile. Separation gradient: changing from 0% B to 100% B in 2-20 min, column temperature: 30° C., flow rate: 0.6 mL/min. Detection wavelength is 280 nm and 366 nm, respectively. The results are shown in Table 1 and FIG. 1-FIG. 6 (FIG. 1 comprises FIG. 1A and FIG. 1B; FIG. 2 comprises FIG. 2A and FIG. 2B; FIG. 3 comprises FIG. 3A, FIG. 3B, FIG. 3C, FIG. 3D, FIG. 3E, FIG. 3F, FIG. 3G and FIG. 3H; FIG. 4 comprises FIG. 4A and FIG. 4B; FIG. 5 comprises FIG. 5A and FIG. 5B; and FIG. 6 comprises FIG. 6A, FIG. 6B, FIG. 6C, […], FIG. 6E, FIG. 6F, FIG. 6G and […]).

A short description of series [3]: Size exclusion chromatography (SEC) analysis of the antibody-drug conjugates. The settings on record: SEC purity of the antibody-drug conjugate. The series is classed as physicochemical. How it is done: Size exclusion chromatography (SEC) analysis column is Tskgel G3000SWXL (TOSOH, 0008541); mobile phase is 0.1 M PB, pH7.0, 0.1M NaCl; isocratic elution, flow rate: 1 mL/min; column temperature: 25° C. Detection wavelength is 280 nm and 366 nm, respectively. Hydrophobic interaction chromatography (HIC) analysis column is Butyl-NPR 4.6×100 mm (TOSOH, 0042168); mobile phase A is 50 mM PB, pH7.0, 1.5 M (NH4)2SO4; mobile phase B is 50 mM PB, pH7.0, 20% acetonitrile. Separation gradient: changing from 0% B to 100% B in 2-20 min, column temperature: 30° C., flow rate: 0.6 mL/min. Detection wavelength is 280 nm and 366 nm, respectively.

Series [4] concerns MC38-hClaudin18.2 cells. Description: In vitro tumor cell killing activity, MC38-hClaudin18.2 cell line (AlamarBlue). Type of series: cell-based, mouse. The settings on record: MC38-hClaudin18.2 cells, 48-72 hours, AlamarBlue; read-out: IC50 values. How it is done: 9D1 antibody-drug conjugates prepared in the previous Experimental Examples and Comparative Examples were used for performing in vitro killing test on MC38 cell lines stably expressing human Claudin18.2. MC38-hClaudin18.2 cells were inoculated into a 96-well cell culture plate at 3000 cells/well, adding gradient diluted 9D1 ADCs next day to culture for 48-72 hours. The fluorescence values of each experimental well were detected by AlamarBlue reagent (ThermoFisher, item number DAL1100), and the cell viability was calculated.
When the cell confluence was greater than 80%, the cells were passaged at a ratio of 1:10 to 1:20 every 3 days.
MC38-hClaudin18.2 cells were digested by a digestive solution of recombinant enzyme (TrypLE™ Express Enzyme). […] The cell density was adjusted to 3×10^4 cells/mL, inoculating into 96-well cell culture plate at 100 μL/well. The cells were cultured overnight at 37° C. in 5% C02 incubator. The next day, the test drug was diluted 10 times in a series with a total of 7-8 concentration points, simultaneously setting a blank control with a sample concentration of 0. The diluted sample was added to 96-well cell culture plate containing cells at 100 μL/well, then incubating at 37° C. in 5% CO2 incubator for 48-72 hours. 20 μL of AlamarBlue detection reagent was added to each well, incubating at 37° C. for 4-6 hours, the fluorescence signal intensity was detected on a multifunctional enzyme-linked immunosorbent assay (ELISA) instrument with an excitation wavelength of 560 nm and an emission wavelength of 590 nm.
The cell viability of the blank control was set to 100%, and the cell viability (%) of the experimental well was calculated by the following formula: […]
The detected average cell viability was takedn as the y-axis, a sigmoid dose response (Variable Slope) method (GraphPad Prism software, GraphPad Software, San Diego, California) was used for nonlinear regression to obtain the inhibitory effect curves of cell proliferation, and the corresponding IC50 values (half maximum inhibition concentration) were calculated. […]

[5] abbreviates: Time 0 h, linker-toxin to Cathepsin B about 1200:1, 37° C.

pIC50: −log10 of the molar value. Numbered stars: 1 amine (or outer) side, 2 acyl side, 3 side chain; on linkers, the order of the positions; unused ones are H or OH. Square brackets hold non-standard residues; d marks the D form. Peptide text beside a SMILES is read from it. * marks the point of attachment. Exatecan = CC[C@@]1(O)C(=O)OCc2c1cc1n(c2=O)Cc2c-1nc1cc(F)c(C)c3c1c2[C@@H](N*)CC3; Dolaproine = CO[C@@H]([C@@H]1CCCN1)[C@@H](C)C(=O)O; Hexanoyl(6-maleimido) = O=C1C=CC(=O)N1CCCCCC(=O)*; Dil = CC[C@H](C)[C@H](NC)[C@@H](CC(=O)O)OC; PABC = O=C(OCc1ccc(N[*:1])cc1)[*:2]; X1 = C[N+](C)(CCCS(=O)(=O)[O-])CCN*; NHCH2OCH2CO = O=C(COCN[*:1])[*:2]; X2 = C[C@@H](N*)[C@@H](O)c1ccccc1; NMeV = CN[C@H](C(=O)O)C(C)C

Regarding `CC[C@@]1(O)C(=O)OCc2c1cc1n(c2=O)Cc2c-1nc1cc(F)c(C)c3c1c2[C@@H](NC(=O)COCNC(=O)CNC(=O)[C@H](Cc1ccccc1)NC(=O)CNC(=O)CNC(=O)CCCCCN1C(=O)C=CC1=O)CC3` [Deruxtecan (MC-GGFG-Dxd), reference compound] ({Hexanoyl(6-maleimido)}-GGFG[NHCH2OCH2CO]-Exatecan), the “Cathepsin B enzyme digestion kinetics” value in series [1] (setting [5]) is reported as 0%; in series [1] (Time 1 h), 0%; in series [1] (Time 2 h) it was 0%; in series [1] (Time 4 h), 0%; in series [1] (Time 20 h) it was 0%; in series [1] (Time 20 h, listed as MC-GGFG-Dxd), “does not release any enzyme digestion products”.

As to `CC[C@@]1(O)C(=O)OCc2c1cc1n(c2=O)Cc2c-1nc1cc(F)c(C)c3c1c2[C@@H](NC(=O)OCc1ccc(NC(=O)[C@H](C)NC(=O)[C@@H](NC(=O)[C@H](CCC(=O)O)NC(=O)CCCCCN2C(=O)C=CC2=O)C(C)C)cc1)CC3` [LD-27], in series [2], the “HIC retention time” value was 15.107 min.

In series [3], `CC[C@@]1(O)C(=O)OCc2c1cc1n(c2=O)Cc2c-1nc1cc(F)c(C)c3c1c2[C@@H](NC(=O)OCc1ccc(NC(=O)[C@H](C)NC(=O)[C@@H](NC(=O)[C@H](CCC(=O)NCC[N+](C)(C)CCCS(=O)(=O)[O-])NC(=O)CCOCCOCCOCCOCCNC(=O)CCN2C(=O)C=CC2=O)C(C)C)cc1)CC3` [LD-37] had an SEC % of 97.50%. Further, the “HIC retention time” value in series [2] turned out to be 14.069 min.

On to `CC[C@@]1(O)C(=O)OCc2c1cc1n(c2=O)Cc2c-1nc1cc(F)c(C)c3c1c2[C@@H](NC(=O)OCc1ccc(NC(=O)[C@H](CCC(=O)NCC[N+](C)(C)CCCS(=O)(=O)[O-])NC(=O)[C@@H](NC(=O)CCOCCOCCOCCOCCNC(=O)CCN2C(=O)C=CC2=O)C(C)C)cc1)CC3` [LD-38], for which the “HIC retention time” value in series [2] was found to be 13.57 min. The “Cathepsin B enzyme digestion kinetics” value in series [1] (setting [5]) was 0%; in series [1] (Time 1 h), 20%; in series [1] (Time 2 h), 77%; in series [1] (Time 20 h), 100%.

`CC[C@H](C)[C@@H]([C@@H](CC(=O)N1CCC[C@H]1[C@H](OC)[C@@H](C)C(=O)N[C@H](C)[C@@H](O)c1ccccc1)OC)N(C)C(=O)[C@@H](NC(=O)[C@H](C(C)C)N(C)C(=O)OCc1ccc(NC(=O)[C@H](CCC(=O)NCC[N+](C)(C)CCCS(=O)(=O)[O-])NC(=O)[C@@H](NC(=O)CCCCCN2C(=O)C=CC2=O)C(C)C)cc1)C(C)C` [LD-57] ({Hexanoyl(6-maleimido)}-VE(X1)[PABC][NMeV]V[Dil][Dolaproine]-X2) showed an SEC % in series [3] of 99.34%. The “HIC retention time” value in series [2] stood at 16.066 min.

With `CC[C@@]1(O)C(=O)OCc2c1cc1n(c2=O)Cc2c-1nc1cc(F)c(C)c3c1c2[C@@H](NC(=O)OCc1ccc(NC(=O)[C@H](C)NC(=O)[C@@H](NC(=O)CCOCCOCCOCCOCCNC(=O)CCN2C(=O)C=CC2=O)C(C)C)cc1CN(C)C(=O)CCC[N+](C)(C)CCCS(=O)(=O)[O-])CC3` [LD-65], the SEC % in series [3] was 99.28%. Moreover, the “HIC retention time” value in series [2] came out at 13.46 min; in series [2] (listed as 7), 13.455 min. Besides, the “Cathepsin B enzyme digestion kinetics” value turned out to be 0% in series [1] (setting [5]), 0% in series [1] (Time 1 h), 1% in series [1] (Time 2 h) and 1% in series [1] (Time 4 h).

In turn, `CC[C@@]1(O)C(=O)OCc2c1cc1n(c2=O)Cc2c-1nc1cc(F)c(C)c3c1c2[C@@H](NC(=O)OCc1ccc(NC(=O)CNC(=O)[C@H](Cc2ccccc2)NC(=O)CNC(=O)CNC(=O)CCCCCN2C(=O)C=CC2=O)cc1CN(C)C(=O)COP(=O)([O-])OCC[N+](C)(C)C)CC3` [LD-72] showed an SEC % in series [3] of 98.90%. Moreover, in series [2], the “HIC retention time” value was 13.126 min.

Compound `CC[C@@]1(O)C(=O)OCc2c1cc1n(c2=O)Cc2c-1nc1cc(F)c(C)c3c1c2[C@@H](NC(=O)OCc1ccc(NC(=O)[C@H](C)NC(=O)[C@@H](NC(=O)CCOCCOCCOCCOCCNC(=O)CCN2C(=O)C=CC2=O)C(C)C)cc1CN(C)C(=O)CCOCCOCCOCCOCCOCCOCCOCCOCCOC)CC3` [LD-73] had an SEC % in series [3] of 99.53%. For the same compound, the “HIC retention time” value in series [2] is 16.002 min.

In series [3], `CC[C@@]1(O)C(=O)OCc2c1cc1n(c2=O)Cc2c-1nc1cc(F)c(C)c3c1c2[C@@H](NC(=O)OCc1ccc(NC(=O)[C@H](C)NC(=O)[C@@H](NC(=O)CCCCCN2C(=O)C=CC2=O)C(C)C)cc1CN(C)C(=O)CN(C)C(=O)CN(C)C(=O)CN(C)C(=O)CN(C)C(=O)CN(C)C(=O)CN(C)C(=O)CN(C)C(=O)CN(C)C(=O)CN(C)C(=O)CN(C)C(C)=O)CC3` [LD-74, reference compound] showed an SEC % of 99.53%. In addition, the “HIC retention time” value in series [2] worked out at 13.583 min.

The compound `CC[C@@]1(O)C(=O)OCc2c1cc1n(c2=O)Cc2c-1nc1cc(F)c(C)c3c1c2[C@@H](NC(=O)OCc1ccc(NC(=O)[C@H](CCC(=O)N(CCCS(=O)(=O)[O-])CC[N+](C)(C)C)NC(=O)[C@@H](NC(=O)CCOCCOCCOCCOCCNC(=O)CCN2C(=O)C=CC2=O)C(C)C)cc1)CC3` [LD-89] registered an SEC % in series [3] of 98.00%. Also, the “HIC retention time” value in series [2] is given as 13.392 min.

With `CC[C@@]1(O)C(=O)OCc2c1cc1n(c2=O)Cc2c-1nc1cc(F)c(C)c3c1c2[C@@H](NC(=O)OCc1ccc(NC(=O)[C@H](C)NC(=O)[C@@H](NC(=O)CCCCCN(C)CCN2C(=O)C=CC2=O)C(C)C)cc1CN(C)C(=O)CCC[N+](C)(C)CCCS(=O)(=O)[O-])CC3` [LD-98], the SEC % in series [3] is on record as 98.79%. In addition, the “HIC retention time” value in series [2] was determined as 13.121 min.

As to `CC[C@H](C)[C@@H]([C@@H](CC(=O)N1CCC[C@H]1[C@H](OC)[C@@H](C)C(=O)N[C@H](C)[C@@H](O)c1ccccc1)OC)N(C)C(=O)[C@@H](NC(=O)[C@@H](NC)C(C)C)C(C)C` [MMAE, monomethyl auristatin E] (H-[NMeV]V[Dil][Dolaproine]-X2), the pIC50 in series [4] was 8.69.

Values taken from patent publication US20260232825A1, “LINKER-DRUG MOLECULE AND ANTIBODY DRUG CONJUGATE, PREPARATION METHOD THEREFOR AND USE THEREOF” (SHANGHAI ESCUGEN BIOTECHNOLOGY CO., LTD., priority 2023, published 2026).
